Results from patent US20250026813A1 (published 2025).
Where a chain is given by its changes, count along the chain named.

B1: YANG-2206 (antibody, V domains shown)
VH: QIQLVQSGAEVKKPGASVKLSCKTSGYTFTSYYMVWVRQAPGQGLEWMGIIKPSGGNTIFAQKFQGRVTMTRDTSTNTVYMDLNSLRSEDTAVYYCARTGDRAFDVWGHGTMVTVSS
VL: QSVLTQPPSVSAAPGQKVTISCSGSSSNIGNNYVSWYQQFPGTAPKLLIYDNNKRPSGIPDRFSGSKSGTSATLGITGLQTGDEADYYCGTWDSSLGAGVFGGGTKVTVL
B2: YANG-2207 (antibody, V domains shown)
VH: B1 VH with I2M, L20I, S31N, F60Y, M81L, N84S, D101N
VL: B1 VL with Y33F, V107L
B3: YANG-2208 (antibody, V domains shown)
VH: B1 VH with K12R, K19R, L20F, T28I, S31N, F60Y, S85N, Y95F, H109Q
VL: B1 VL with V10M, S25N, Y33F, Q38R, G97S, V107L
B4: YANG-2301 (antibody, V domains shown)
VH: QVHLIQSGAEVKKPGASVKVSCKVSGYTLIEVSVHWVRQAPGKGLEWMGGFDPEAAETIYAQKFQGRVTMTEDTSTDTAYMDLSSLKSEDSAVYYCAIGPAVTGRNSGEYYYYYGMDVWGQGTTVTVAS
VL: EIVMTQSPATLSVSPGERATLSCRASQSVNSNLAWYQQKPGQAPRLLIYAVSTRATGLPARFSGSGSGTEFTLTISSLQSEDFVVYYCHQYNNWPLTFGGGTKVEIK
B5: YANG-2302 (antibody, V domains shown)
VH: QVQLVQSGAEVRKPGASVKVSCKVSGYTLPELAIHWVRQAPGKGLEWMGGFIPEDGDTIYAQKFQGRVTMTEDTSTDTAYMDLTSLRSEDAAVYYCTSGWAAPGYNYGMAVWGQGTTVTVSS
VL: EVVLTQSPGTLSLSSGERATLSCRASQSVSSNYLAWYQKKPGQAPRLLIYGASSRVTGIPDRFGGSGSGTDFTLTISRLEPEDFAVYYCQQYDASPYSFGQGTKLDIK
B6: YANG-2303 (antibody, V domains shown)
VH: QVQLVQSGAEVKKPGASVRVSCKVSGYTLPELAIHWVRQAPGKGLEWMGGFDPEDGETIYAQKFQGRVIMTEDTSTDTAYMDLSSLRSEDTAVYYCVKTWAAPGYNYGLDTWGQGTTVTVSS
VL: EIVLTQSPGILSLSPGESATLSCRASQSIASNYLAWFQQKPGQAPRLLIYGASSRAAGFPDRFSGSGSGTDFTLTIKRLEPEDSAVYYCQHYGSSPCSFGQGTNLEIK
B7: IMPI-004 (antibody, V domains shown)
VH: QVQLVESGGGVVQPGRSLRLSCAASGFTFSSYGMHWVRQAPGKGLEWVAVIWYDGGNKYYADSVKGRFTISRDNSKNTLYLQMNSLRAEDTAVYYCARVNVLMGYGMDVWGQGTTVTVSS
VL: EIVLTQSPGTLSLSPGDKATLSCRASQSIISSFLAWYQQKPGQAPRLLIYGASSRATGIPDRFSGSGSGTDFTLTISRLEPEDFAVYYCQQYGSSLTFGGGTKVEIK
B8: IMPI-029 (antibody, V domains shown)
VH: EVQLVESGGGLIQPGGSLRLSCAASGVTVSSNYMNWVRQAPGKGLEWVSVIYSGGSTYYADSVKGRFTISRDNSKNTLFLQMNSLRAEDSAVYYCARDLGPYGVDVWGQGTTVTVSS
VL: DIQLTQSPSFLSASVGDRVTITCWASQGISSYLAWYQQKPGKAPKLLIYAASTLQSGVPSRFSGSGSGTEFTLTISSLQPEDFATYYCQELNSYPLTFGQGTRLEIK
B9: IMPI-005 (antibody, V domains shown)
VH: B8 VH with V27F
VL: B8 VL
B10: IMPI-056 (antibody, V domains shown)
VH: B8 VH with V27L, G44K, Y58F, K64R
VL: B8 VL with E90Q
B11: IMPI-060 (antibody, V domains shown)
VH: B8 VH with N35S, Y58F, F79Y, S90T, G100S, P101Y, V104M
VL: B8 VL with R61K, E90Q, L96S, T97S, R103K
B12: IMPI-047 (antibody, V domains shown)
VH: B8 VH with V27F, F79Y, A87T, S90T, G100V, P101A, V104M
VL: B8 VL with L46V, E90L, Y94N, Q100G, R103K, L104V
B13: IMPI-055 (antibody, V domains shown)
VH: QVQLVQSGAEVKKPGASVKVSCKASGYTFTSYDINWVRQATGQGLEWMGWMNPNSGNTGYAQKFQGRVTMTRDTSINTAYMELSSLRSEDTAVYFCARGGRYCSDVTCYSGEPFDYWGQGTLVTVSS
VL: EIMLTQSPDFQSVTPKEKVTITCRASQSIGSSLHWYQQKPDQSPKLLIKFASQSISGVPSRFSGSGSGTDFTLTINSLEAEDAAAYYCHQSSSLPHTFGPGTKVEIK
B14: IMPI-054 (antibody, V domains shown)
VH: EVQLVESGGGLIQPGGSLRLSCAASGLTVSSNYMSWVRQAPGKGLEWVSIIYSGGSTYYADSVKGRFTISRDNSKNTLYLQMNSLRAEDTAVYYCARLGGYYYYGMDVWGQGTTVTVSS
VL: DIQMTQSPSSLSASVGERVTITCQASQDIRNYLNWYQKKPGKAPKLLIYDSSNLETGVPSRFSGSGSGTDFTFTISSLQPEDIATYYCQQYDNLPITFGQGTRLEIK
B15: IMPI-017 (antibody, V domains shown)
VH: B8 VH with S25A, V27L, A40V, F79Y, S90T, P101T, Y102L, V104M
VL: B8 VL with S31T, E90Q, P95L, L96P, R103K, L104V
B16: IMPI-059 (antibody, V domains shown)
VH: EVQLVESGGGLIQPGGSLRLSCAASGFTVSSIYMSWVRQAPGKGLEWVSIIYSRGSTDYADSVKGRFTISRDISKNTLYLQMNSLRAEDTAVYYCARDGTMVRGVHAFDIWGQGTMVTVSS
VL: DIQMTQSPPSLSASIGDRVTITCQASQDISNYLNWYQQKPGKAPKLLIYDASNLETGVPSRFSGSGSGTDFTLTISNLQPEDIVTYYCQQYDNLPSSFGQGTKLEIK
B17: IMPI-037 (antibody, V domains shown)
VH: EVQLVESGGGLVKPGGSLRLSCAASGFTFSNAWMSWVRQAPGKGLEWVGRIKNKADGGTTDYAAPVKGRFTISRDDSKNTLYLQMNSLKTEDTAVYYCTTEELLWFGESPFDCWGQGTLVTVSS
VL: B8 VL with S30N, A84T, E90Q, L91F, S93D, L96R, Q100P, R103K, L104V
B18: IMPI-013 (antibody, V domains shown)
VH: EVQLVESGGGLVQPGRSLRLSCAASGFTFDDYAMHWVRQTPGKGLEWVSGISWNSGSIGYADSVKGRFTISRDNAKNSLYLQMNSLRAEDTALYYCTKDLGLGIGFYYGLDVWGQGTTVTVSS
VL: AIQMTQSPSSLSTSVGDRVTITCRASQGIRNDLGWYQLKPGKAPKLLIYDASTLQSGVPSRFSGSGSGTDFTLTISSLEPEDLATYYCLHHYTYPWTFGHGTKVELK

Key:
[1] = molecular target: SARS-CoV-2 spike protein bearing furin mutation and truncation in retention sequence, on pseudovirus (SARS-CoV-2, UniProt P0DTC2 14-1255); assay: cell-based or functional assay
[2] = molecular target: full soluble spike trimer of SARS-CoV-2 virus (stabilised, in-house) (SARS-CoV-2, UniProt P0DTC2 14-1208; P10104 458-484)
[3] = molecular target: SARS-CoV-2 spike protein trimer stabilised by double proline (PP) mutation (FIG. 2B sequence) with C (SARS-CoV-2, UniProt P0DTC2 14-1208; P10104 458-484)

Row | Binder | pseudovirus neutralisation IC50 [1] [nM] | IC50 [2] [nM] | also measured
1 | B1 | 3.96 | – | –
2 | B2 | 2.59 | – | –
3 | B3 | 4.68 | – | –
4 | B4 | 0.53 | – | –
5 | B5 | 0.61 | – | –
6 | B6 | 0.48 | – | –
7 | B7 | – | 4.09 | –
8 | B8 | – | 3.31 | –
9 | B9 | – | 13.1 | –
10 | B10 | – | 3.73 | –
11 | B11 | – | 5.26 | –
12 | B12 | – | 7.3 | –
13 | B13 | – | 4.5 | –
14 | B14 | – | 11.6 | –
15 | B15 | – | 3.15 | –
16 | B16 | – | 8.38 | –
17 | B17 | – | 13.7 | –
18 | B18 | – | – | Kd [3]: 0.299 nM
